From patent US20210163594A1 (INVENRA, published 2021) come the findings set out here.

The target of one test is T1, CD3.
T1 chain: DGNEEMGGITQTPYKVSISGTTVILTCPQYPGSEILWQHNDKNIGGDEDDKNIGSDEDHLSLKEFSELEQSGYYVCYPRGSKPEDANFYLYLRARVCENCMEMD
Put plainly: BLI (Octet), two-fold serial dilution (200-12.5 nM) of the monovalent B-Body. A general note: Biolayer interferometry detects binding as a change in optical thickness at a sensor tip.

A further test concerns the target CTLA4 (UniProt P16410 36-161, limits assumed). As to the kind of experiment: BLI (Octet), antigen immobilized, B-Body as analyte. From the text:
In each instance, the antigen is immobilized and the B-Body is the analyte.

Chain of CTLA4 (P16410 36-161 limits assumed): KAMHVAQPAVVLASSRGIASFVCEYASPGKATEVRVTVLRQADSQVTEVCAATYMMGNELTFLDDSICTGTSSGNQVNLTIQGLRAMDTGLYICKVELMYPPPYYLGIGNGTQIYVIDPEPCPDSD

B1: non-mutagenized SP34-89 monovalent B-Body (bispecific antibody, V domains shown)
VH: EVQLVESGGGLVQPGGSLRLSCAASGFTFNTYAMNWVRQAPGKGLEWVARIRSKYNNYATYYADSVKGRFSISRDDSKNTAYLQMNSLRAEDTAVYYCVRHGNFGNSYVSWFAYWGQGTLVTV
VL: QAVVTQEPSLTVSPGGTVTLTCRSSTGAVTTSNYANWVQQKPGQAPRGLIGGTNKRAPWTPARFSGSLLGGKAALTITGAQAEDEADYYCALWYSNLWVFGGGTKLTVL
notes: VL and VH were cloned into one arm of a 1×1 BC1 B-Body; Constant parts as in the BC1 scaffold; also called SP34-89 VL-WT/SP34-89 VH-WT
Broadly, the Kd is a measure of binding affinity in units of concentration. High values mean weaker binding, low ones tighter binding. Broadly, the koff is the first-order rate constant of dissociation. The low end stands for slow dissociation, the high end for fast dissociation. For orientation: kon means the rate constant with which the complex forms. Consider B1, for which, in the test with CD3, binding was put at a Kd of 23 nM, the koff was 0.0071 s⁻¹ and the kon came to 300000 M⁻¹ s⁻¹.

B2: BC1 (bispecific antibody)
chain 1: not shown
chain 2: EVQLVESGGGLVQPGGSLRLSCAASGFTFSDYDIHWVRQAPGKGLEWVGDITPYDGTTNYADSVKGRFTISADTSKNTAYLQMNSLRAEDTAVYYCARLVGEIATGFDYWGQGTLVTVSSASPREPQVYTDPPSRDELTKNQVSLTCLVKGFYPSDIAVEWESNGQPENNYKTTPPVLDSDGSFFLYSKLTVDKSRWQQGNVFSCSVMHEALHNHYTQKSLSLSGEC
chain 3: not shown
chain 4: QVQLVESGGGVVQPGRSLRLDCKASGITFSNSGMHWVRQAPGKGLEWVAVIWYDGSKRYYADSVKGRFTISRDNSKNTLFLQMNSLRAEDTAVYYCATNDDYWGQGTLVTVSSASTKGPSVFPLAPSSKSTSGGTAALGCLVKDYFPEPVTVSWNSGALTSGVHTFPAVLQSSGLYSLSSVVTVPSSSLGTQTYICNVNHKPSNTKVDKKVEPPKSC
notes: also called bivalent bispecific B-Body BC1; bivalent 1×1 construct BC1
Regarding B2, the binding result with CTLA4 was “no binding”.
